Experimental data reported in patent US20220177587A1, “METHODS AND USES OF VARIANT CD80 FUSION PROTEINS AND RELATED CONSTRUCTS” (Alpine Immune Sciences, Inc., priority 2018, published 2022).

Legend:
CD28 = CD28 (Homo sapiens, UniProt P10747); assay: Jurkat/IL2 reporter assay: blockade of CD28 costimulation (plate-bound anti-CD3/CD86-Fc); format: cell-based; design: host or cells: Jurkat cells expressing an IL-2-luciferase reporter; conditions: Table E5; protein diluted to 40 nM before mixing with cells; 5 hours
Procedure: The day before the assay, the assay plate was prepared. […] The plate was incubated overnight at 4° C. to allow the antibody and CD86-Fc protein to adhere to the surface of the plate. The next day, the wells of the assay plate were washed twice with 150 μL PBS prior to the assay.
Jurkat effector cells expressing IL-2-luciferase reporter were counted and resuspended in assay buffer to a concentration of 2×10^6 cells/mL. 60 μL of the Jurkat cell suspension were then added to the wells containing the CD80-Fc fusion molecules or controls. The cells and CD80 proteins were incubated at room temperature for 15 minutes and then 100 μL of the cell/CD80 protein mixture were transferred/well of the prepared anti-CD3/CD86-Fc assay plate.
The assay plate was briefly spun down (10 seconds at 1200 RPM) and incubated at 37° C. for 5 hours. After the 5 hour incubation, the plate was removed and equilibrated to room temperature for 15 minutes. 100 μL of Bio-Glo (Promega) were added/well of the assay plate, which was then placed on an orbital shaker for 10 minutes. Luminescence was measured with a 1 second per well integration time using a BioTek Cytation 3 luminometer.

human pan T cells = assay: Anti-CD3 coimmobilization assay, IFN-gamma; format: cell-based; conditions: Table E34; culture supernatant, 3 days
Summary of the method: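 Plates coated overnight with 1 nM or 4 nM OKT3 anti-CD3 plus 1–80 nM rCD80.Fc variants, then washed. Purified human pan T cells or BC3 T cell clone (100,000/well) cultured 3 days in Ex-Vivo 15; supernatant IFN-gamma measured by ELISA.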

Molecule	Average Relative Luminescence Units (CD28)	Anti-CD3 IFN-gamma Coimmobilization Assay (human pan T cells)
T13R/C16R/L70Q/A71D: variant CD80 IgV-Fc, IgV SEQ ID NO:155 (protein) VIHVTKEVKEVARLSRGHNVSVEELAQTRIYWQKEKKMVLTMMSGDMNIWPEYKNRTIFDITNNLSIVIQDLRPSDEGTYECVVLKYEKDAFKREHLAEVTLSVKAD	3204 Relative Luminescence Units	
R29D, Y31L, Q33H, K36G, M38I, T41A, M43R, M47T, L70Q, E81V, K89N, A91T, F92P, K93V, R94L, I118V, T120S, I127T, T130A (protein) VIHVTKEVKEVATLSCGHNVSVEELAQTDILWHKEGKIVLAMRSGDTNIWPEYKNRTIFDITNNLSIVIQALRPSDEGTYVCVVLKYENDTPVLEHLAEVTLSVKADFPTPSISDFEVPSSNIRRITCSASGGFPEPHLSWLENGEELNAINTTVSQDPETELYAVSSKLDFNMTTNHSFMCLIKYGHLRVNQTFNWNTTKQEHFPDN		226 pg/mL
R29D, Y31L, Q33H, K36G, M38I, T41A, M43R, M47T, L85R, K89N, A91T, F92P, K93V, R94L, I118V, T120S, I127T, T130A, K169E, H188D (protein) VIHVTKEVKEVATLSCGHNVSVEELAQTDILWHKEGKIVLAMRSGDTNIWPEYKNRTIFDITNNLSIVILALRPSDEGTYECVVRKYENDTPVLEHLAEVTLSVKADFPTPSISDFEVPSSNIRRITCSASGGFPEPHLSWLENGEELNAINTTVSQDPETELYAVSSELDFNMTTNHSFMCLIKYGDLRVNQTFNWNTTKQEHFPDN		231 pg/mL
R29D, Y31L, Q33H, K36G, M38I, T41A, M43R, M47T, E81V, L85R, K89N, A91T, F92P, K93V, R94L, F108L, I118V, T120S, T130A, K169E, H188D (protein) VIHVTKEVKEVATLSCGHNVSVEELAQTDILWHKEGKIVLAMRSGDTNIWPEYKNRTIFDITNNLSIVILALRPSDEGTYVCVVRKYENDTPVLEHLAEVTLSVKADLPTPSISDFEVPSSNIRRIICSASGGFPEPHLSWLENGEELNAINTTVSQDPETELYAVSSELDFNMTTNHSFMCLIKYGDLRVNQTFNWNTTKQEHFPDN		165 pg/mL
R29D, Y31L, Q33H, K36G, M38I, T41A, M43R, M47T, L70Q, E81V, L85R, K89N, A91T, F92P, K93V, R94L, T130A, H188D (protein) VIHVTKEVKEVATLSCGHNVSVEELAQTDILWHKEGKIVLAMRSGDTNIWPEYKNRTIFDITNNLSIVIQALRPSDEGTYVCVVRKYENDTPVLEHLAEVTLSVKADFPTPSISDFEIPTSNIRRIICSASGGFPEPHLSWLENGEELNAINTTVSQDPETELYAVSSKLDFNMTTNHSFMCLIKYGDLRVNQTFNWNTTKQEHFPDN		213 pg/mL
R29D, Y31L, Q33H, K36G, M38I, T41A, M43R, M47T, L70Q, E81V, L85R, K89N, A91T, F92P, K93V, R94L, I118V, T120S, T130A, N149D, K169E, H188D (protein) VIHVTKEVKEVATLSCGHNVSVEELAQTDILWHKEGKIVLAMRSGDTNIWPEYKNRTIFDITNNLSIVIQALRPSDEGTYVCVVRKYENDTPVLEHLAEVTLSVKADFPTPSISDFEVPSSNIRRIICSASGGFPEPHLSWLENGEELDAINTTVSQDPETELYAVSSELDFNMTTNHSFMCLIKYGDLRVNQTFNWNTTKQEHFPDN		118 pg/mL
H18L, R29D, Y31L, Q33H, K36G, M38I, T41A, M43R, M47T, L70Q, E81V, L85R, K89N, A91T, F92P, K93V, R94L, I118V, T120S, T130A, K169E, H188D (protein) VIHVTKEVKEVATLSCGLNVSVEELAQTDILWHKEGKIVLAMRSGDTNIWPEYKNRTIFDITNNLSIVIQALRPSDEGTYVCVVRKYENDTPVLEHLAEVTLSVKADFPTPSISDFEVPSSNIRRIICSASGGFPEPHLSWLENGEELNAINTTVSQDPETELYAVSSELDFNMTTNHSFMCLIKYGDLRVNQTFNWNTTKQEHFPDN		157 pg/mL
R29D, Y31L, Q33H, K36G, M38I, T41A, M43R, M47T, E81V, L85R, K89N, A91T, F92P, K93V, R94L, I118V, T120S, I127T, C128Y, T130A, H188D (protein) VIHVTKEVKEVATLSCGHNVSVEELAQTDILWHKEGKIVLAMRSGDTNIWPEYKNRTIFDITNNLSIVILALRPSDEGTYVCVVRKYENDTPVLEHLAEVTLSVKADFPTPSISDFEVPSSNIRRITYSASGGFPEPHLSWLENGEELNAINTTVSQDPETELYAVSSKLDFNMTTNHSFMCLIKYGDLRVNQTFNWNTTKQEHFPDN		278 pg/mL

Second part, led by results:

Average Relative Luminescence Units (CD28)	Molecule	Anti-CD3 IFN-gamma Coimmobilization Assay (human pan T cells)
1463 Relative Luminescence Units	T57I: variant CD80 IgV-Fc, IgV SEQ ID NO:156 (protein) VIHVTKEVKEVATLSCGHNVSVEELAQTRIYWQKEKKMVLTMMSGDMNIWPEYKNRIIFDITNNLSIVILALRPSDEGTYECVVLKYEKDAFKREHLAEVTLSVKAD	
1326 Relative Luminescence Units	M43I/C82R: variant CD80 IgV-Fc, IgV SEQ ID NO:157 (protein) VIHVTKEVKEVATLSCGHNVSVEELAQTRIYWQKEKKMVLTMISGDMNIWPEYKNRTIFDITNNLSIVILALRPSDEGTYERVVLKYEKDAFKREHLAEVTLSVKAD	
1770 Relative Luminescence Units	V22L/M38V/M47I/A71D/L85M: variant CD80 IgV-Fc, IgV SEQ ID NO:158 (protein) VIHVTKEVKEVATLSCGHNVSLEELAQTRIYWQKEKKVVLTMMSGDTNIWPEYKNRTIFDITNNLSIVILDLRPSDEGTYECVVMKYEKDAFKREHLAEVTLSVKAD	
1731 Relative Luminescence Units	I30V/T57I/L70P/A71D/A91T: variant CD80 IgV-Fc, IgV SEQ ID NO:159 (protein) VIHVTKEVKEVATLSCGHNVSVEELAQTRVYWQKEKKMVLTMMSGDMNIWPEYKNRIIFDITNNLSIVIPDLRPSDEGTYECVVLKYEKDTFKREHLAEVTLSVKAD	
253 Relative Luminescence Units	V22I/L70M/A71D: variant CD80 IgV-Fc, IgV SEQ ID NO:160 (protein) VIHVTKEVKEVATLSCGHNVSIEELAQTRIYWQKEKKMVLTMMSGDMNIWPEYKNRTIFDITNNLSIVIMDLRPSDEGTYECVVLKYEKDAFKREHLAEVTLSVKAD	
2377 Relative Luminescence Units	E35D/M47I/L65P/D90N: variant CD80 IgV-Fc, IgV SEQ ID NO:167 (protein) VIHVTKEVKEVATLSCGHNVSVEELAQTRIYWQKDKKMVLTMMSGDINIWPEYKNRTIFDITNNPSIVILALRPSDEGTYECVVLKYEKNAFKREHLAEVTLSVKAD	
